US20080032340A1 (UNIVERSITY OF ARIZONA, published 2008)
Bridges are numbered along the chain shown (N, C = ends). Where no end group is shown, it is not given here.

Experiments:
[1] = molecular target: T1, streptavidin (UniProt P22629 37-163, limits assumed); assay: HABA competition, 50 µM HABA-streptavidin complex, absorbance at 500 nm
T1 construct: Bought from Pierce; Used free in solution in the HABA assay and immobilized on agarose resin in the fusion protein experiments; also called agarose immobilized streptavidin
Method: (§1) FIG. 1: Competitive ligand binding analysis of […] Error bars indicate the standard deviation of three separate assays.
After 60 minutes, the absorbance of the complex was monitored at 500 nm. To calculate the IC₅₀s of the selected peptides, the average of three separate trials were fitted to the Hill equation, […]

[2] = molecular target: T2, avidin (hen egg white (chicken), UniProt P02701 25-152, glycosylated native state); assay: HABA competition, 50 µM HABA-avidin complex, absorbance at 500 nm, IC50 converted by Cheng-Prusoff
T2 construct: Bought from Pierce; also called glycosylated parent of NeutrAvidin
Method: (§2) After 60 minutes, the absorbance of the complex was monitored at 500 nm. To calculate the IC₅₀s of the selected peptides, the average of three separate trials were fitted to the Hill equation,
(§3) Best fit equations were calculated using KaleidaGraph (Synergy Software).

[3] = molecular target: T3, NeutrAvidin (UniProt P02701 25-152, chemically deglycosylated and chemically modified to a more neutral isoelectric point (pI=6.3)); assay: HABA competition, 50 µM HABA-NeutrAvidin complex, absorbance at 500 nm, IC50 converted by Cheng-Prusoff
T3 construct: Bought from Pierce; also called NA; deglycosylated avidin
Method: as §2, §3

[4] = molecular target: T3, NeutrAvidin; assay: HABA competition, uncyclized peptides (the filing cites 'FIG. 3B'; FIG. 1B holds these curves)
Method: as §1, §2, §3

Binder	Kd [1] [µM]	Kd [2] [µM]	Kd [3] [µM]	Kd [4] [µM]
CDRASPYCG-NH2 (disulfide 1-8; N-terminus assumed; SMILES C[C@@H]1NC(=O)[C@H](CCCNC(=N)N)NC(=O)[C@H](CC(=O)O)NC(=O)[C@@H](N)CSSC[C@@H](C(=O)NCC(N)=O)NC(=O)[C@H](Cc2ccc(O)cc2)NC(=O)[C@@H]2CCCN2C(=O)[C@H](CO)NC1=O, Synthetic peptide from Fmoc synthesis on RinkAmide resin, oxidised in PBS with 10% DMSO; also called cyclic DRASPY peptide) [cyclized CDRASPYCG (SEQ ID NO: 7)]	> 5000	44.9	31.5	–
CDRATPYCG-NH2 (cysteine pairing not given here, Same peptide as m2, used as the linear form; also called linear DRATPY peptide; acyclic counterpart) [uncyclized CDRATPYCG (SEQ ID NO: 9)]	–	–	–	< 500
CDRATPYCG-NH2 (disulfide 1-8; N-terminus assumed; SMILES C[C@@H]1NC(=O)[C@H](CCCNC(=N)N)NC(=O)[C@H](CC(=O)O)NC(=O)[C@@H](N)CSSC[C@@H](C(=O)NCC(N)=O)NC(=O)[C@H](Cc2ccc(O)cc2)NC(=O)[C@@H]2CCCN2C(=O)[C@H]([C@@H](C)O)NC1=O, Synthetic peptide from Fmoc synthesis on RinkAmide resin, oxidised in PBS with 10% DMSO; also called cyclic DRATPY peptide) [cyclized CDRATPYCG (SEQ ID NO: 9)]	> 5000	28.1	12.5	–
CDLASPWCG-NH2 (disulfide 1-8; N-terminus assumed; SMILES CC(C)C[C@@H]1NC(=O)[C@H](CC(=O)O)NC(=O)[C@@H](N)CSSC[C@@H](C(=O)NCC(N)=O)NC(=O)[C@H](Cc2c[nH]c3ccccc23)NC(=O)[C@@H]2CCCN2C(=O)[C@H](CO)NC(=O)[C@H](C)NC1=O, Synthetic peptide from Fmoc synthesis on RinkAmide resin, oxidised in PBS with 10% DMSO; also called cyclic DLASPW peptide) [cyclized CDLASPWCG (SEQ ID NO: 5)]	> 5000	46.2	62.8	–
CDRASPYCG-NH2 (cysteine pairing not given here, Same peptide as m1, used as the linear form; also called linear DRASPY peptide; acyclic counterpart) [uncyclized CDRASPYCG (SEQ ID NO: 7)]	–	–	–	< 500
